Target: T1, Bal gp120-CD4 (HIV-1 (Bal isolate))
T1 construct: domain: gp120;domain: two-domain CD4; also called gp120Bal-CD4; panning antigen; not shown: junction or linker between gp120 and CD4 is not described
Experiment: ELISA, antigen coated, purified refolded nAb, anti-His-HRP

Binder | EC50 [nM]
m1a1 (designed binder, also called CH2 clone m1a1; nAb m1a1; not shown: C-terminal His tag used for detection) APELLGGPSVFLFPPKPKDTLMISRTPEVTCVVVDYDYDSYFDFGKFNWYVDGVEVHNAKTKPREEQYNSTYRVVSVLTVLHQDWLNGKEYKCKVSNSDSAASGPIEKTISKAK | 500
m1a2 (designed binder, also called CH2 clone m1a2; nAb m1a2; not shown: C-terminal His tag used for detection) APELLGGPSVFLFPPKPKDTLMISRTPEVTCVVVDYDYDSYYDGKFNWYVDGVEVHNAKTKPREEQYNSTYRVVSVLTVLHQDWLNGKEYKCKVSNDDYAADGPIEKTISKAK | 500
